Several values for one entry are separate records, joined by “and”; a condition that tells them apart may be missing. Identical values can stand only once.
Experiments:
[1] = biological target: FcγRIIIA-streptavidin fusion protein (tetramer) (human; Streptomyces avidinii) (UniProt P08637); assay: ELISA: antibody captured on protein A/G, FcγRIIIA tetramer (streptavidin fusion), biotin-HRP, OD450
[2] = biological target: FcγRIIIA (soluble receptor used as analyte in the BIAcore runs) (human) (UniProt P08637); assay: BIAcore run 1, IgG immobilized, soluble FcγRIIIA, Scatchard plot
Chain of FcγRIIIA (soluble receptor used as analyte in the BIAcore runs) (human) (P08637 17-208): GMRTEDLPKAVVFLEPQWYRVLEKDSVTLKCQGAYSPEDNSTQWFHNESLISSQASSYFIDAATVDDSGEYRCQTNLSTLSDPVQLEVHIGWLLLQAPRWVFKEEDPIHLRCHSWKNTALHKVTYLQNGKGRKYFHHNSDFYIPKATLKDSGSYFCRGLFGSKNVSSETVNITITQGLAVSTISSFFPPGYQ

[3] = biological target: FcγRIIIA (soluble receptor used as analyte in the BIAcore runs) (human) (UniProt P08637); assay: BIAcore run 2, IgG immobilized, soluble FcγRIIIA, Scatchard plot
[4] = biological target: FcγRIIIA (soluble receptor used as analyte in the BIAcore runs) (human) (UniProt P08637); assay: BIAcore run 1, IgG immobilized, soluble FcγRIIIA, steady-state isotherm
[5] = biological target: FcγRIIIA (soluble receptor used as analyte in the BIAcore runs) (human) (UniProt P08637); assay: BIAcore run 2, IgG immobilized, soluble FcγRIIIA, steady-state isotherm
[6] = biological target: FcγRIIB-streptavidin fusion protein (tetramer) (human; Streptomyces avidinii) (UniProt P31994); assay: ELISA: antibody captured on protein A/G, FcγRIIB-streptavidin, biotin-HRP, OD450

| Substance | EC50 (read off the curve) [1] [µg/mL] | EC50 (read off the curve) [6] | further results |
| --- | --- | --- | --- |
| 3F2-3M (3F2 Fc variant S239D/A330L/I332E, IgG1) (from UniProt P01857 1-330) (antibody) | 0.05 |  |  |
| Vitaxin® (wild type IgG1 antibody) |  | 0.4 µg/mL and 0.3 µg/mL | Kd [2]: 3.26 µM; Kd [3]: 7.6 µM; Kd [4]: 3.47 µM; Kd [5]: 8.9 µM |
| Vitaxin®-1M (Vitaxin® Fc variant I332E, IgG1) (from UniProt P01857 1-330) (antibody) |  | 0.3 µg/mL |  |
| 3F2-1M (3F2 Fc variant I332E, IgG1) (from UniProt P01857 1-330) (antibody) | 0.05 |  |  |

— patent US20060039904A1
